{"source": "patent US20160348112", "target": "Clumping factor A (ClfA) (Staphylococcus aureus NRS384 (USA300)) (UniProt Q2G015)", "sequence (Q2G015 40-893)": "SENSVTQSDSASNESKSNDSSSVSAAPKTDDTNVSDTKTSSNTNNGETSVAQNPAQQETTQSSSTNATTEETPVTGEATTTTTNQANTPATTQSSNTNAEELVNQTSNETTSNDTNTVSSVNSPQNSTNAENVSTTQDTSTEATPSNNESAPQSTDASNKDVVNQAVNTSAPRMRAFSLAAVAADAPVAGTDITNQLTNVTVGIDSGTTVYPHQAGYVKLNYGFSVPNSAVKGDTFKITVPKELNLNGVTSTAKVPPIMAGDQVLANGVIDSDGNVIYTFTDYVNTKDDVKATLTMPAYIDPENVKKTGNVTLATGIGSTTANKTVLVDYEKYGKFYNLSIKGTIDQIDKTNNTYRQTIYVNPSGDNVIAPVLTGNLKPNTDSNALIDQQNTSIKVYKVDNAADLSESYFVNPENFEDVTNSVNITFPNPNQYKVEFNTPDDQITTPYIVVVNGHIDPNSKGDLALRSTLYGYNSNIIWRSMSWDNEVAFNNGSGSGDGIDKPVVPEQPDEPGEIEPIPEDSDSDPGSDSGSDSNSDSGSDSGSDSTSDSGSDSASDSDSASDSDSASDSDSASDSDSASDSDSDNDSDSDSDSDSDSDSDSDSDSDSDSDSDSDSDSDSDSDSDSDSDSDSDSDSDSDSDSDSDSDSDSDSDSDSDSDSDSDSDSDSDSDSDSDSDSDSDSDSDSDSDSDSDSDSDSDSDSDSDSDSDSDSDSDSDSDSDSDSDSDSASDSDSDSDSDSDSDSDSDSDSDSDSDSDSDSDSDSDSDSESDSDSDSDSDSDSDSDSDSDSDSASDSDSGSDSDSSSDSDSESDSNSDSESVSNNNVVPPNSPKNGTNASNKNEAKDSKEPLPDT", "test": "filter", "settings": "BndU at every n (W); full-length clone also has fixed flanking regions not printed [BndU at 2,4,7,8,14,20,21,27,29,32,33,34,35,36,40]; SB18T, 5 mM MgCl2; full-length aptamer", "data": [{"sequence": "ATCTGGTTCAAAGTGGCGATTGGGCATCTGGTTTTTAAGT [4503-73]", "values": [{"measurement": "Kd", "result": 0.79, "unit": "nM"}]}]}
